# In PMC8248988, “A signal capture and proofreading mechanism for the KDEL-receptor explains selectivity and dynamic range in ER retrieval” (eLife, 2021):
# Ends that are not written are not given here.
# B1: KDEL receptor 2 (protein)
# chain: MNIFRLTGDLSHLAAIIILLLKIWKSRSCAGISGKSQLLFALVFTTRYLDLFTSFISLYNTSMKLIYIACSYATVYLIYMKFKATYDGNHDTFRVEFLIVPVGGLSFLVNHDFSPLEILWTFSIYLESVAILPQLFMISKTGEAETITTHYLFFLGLYRALYLVNWIWRYYFEGFFDLIAVVAGVVQTVLYCDFFYLYVTKVLKGKKLSLPA
# Columns and labels:
# [1] = target: T1, TAERDEL retrieval signal peptide; experiment: peptide binding assay
# T1 chain: TAERDEL
# [2] = target: T2, TAEDDEL retrieval signal peptide; experiment: peptide binding assay
# T2 chain: TAEDDEL
# [3] = target: T3, TAEHDEL retrieval signal peptide; experiment: [3H]-peptide filter binding assay
# T3 chain: TAEHDEL
# [4] = target: T4, TAEKDEL retrieval signal peptide (BiP) (Homo sapiens); experiment: [3H]-peptide filter binding assay
# T4 chain: TAEKDEL
# [5] = target: T3, TAEHDEL retrieval signal peptide; experiment: competition binding with [3H]-TAEHDEL
# [6] = target: T5, TAEHDEL-CONH retrieval signal peptide; experiment: competition binding with [3H]-TAEHDEL
# T5 chain: TAEHDEL-NH2
# [7] = target: T3, TAEHDEL retrieval signal peptide; experiment: [3H]-peptide filter binding assay, pH 5.4
# [8] = target: T4, TAEKDEL retrieval signal peptide (BiP); experiment: [3H]-peptide filter binding assay, pH 5.4
binder,measurement,setting,value
B1,Kd,[1],2.71 µM
same,Kd,[2],14.9 µM
same,Kd,[3],0.24 µM
same,Kd,[4],1.94 µM
same,IC50,[5],19 µM
same,IC50,[6],1700 µM
same,Kd,[7],0.26 µM
same,Kd,[8],1.9 µM
